Test results published in patent US10400024B2, “Cleavage and exchange of major histocompatibility complex ligands employing azobenzene-containing peptides” (priority 2014, dated 2019).
Entries after “also recorded” stand apart in the source; their conditions may differ.

Columns and labels:
PBMCs (CD8+ cells) = test: Cell viability assay with sodium dithionite (Annexin V, LIVE/DEAD, flow cytometry); format: cell-based, human; settings: 10 mM, 16 hours exposure; primary and cultured cells
Procedure: 10^6 freshly isolated PBMCs from healthy volunteers were incubated in 1 ml RPMI 1640 culture media containing HEPES-buffered 1 mM to 100 mM sodium dithionite (pH 7.4) at 37° C., 5% CO2. After 1-hour or 16-hour incubation, the cells were immediately assessed for cell viability or rested overnight in fresh media (for 1-hour treatment only). The cells were harvested, washed with PBS twice and stained with cell viability LIVE/DEAD® fixable near-IR stain (Molecular Probes®). The cells were then washed again with PBS and stained with anti-human CD8 (Clone RPA-T8; BioLegend) Brilliant Violet 421™ antibodies for 15 minutes. Thereafter, the cells were washed once with PBS and once with 1× Annexin V binding buffer (10 mM HEPES, pH 7.4; 140 mM NaCl; 2.5 mM CaCl2) prior to incubation with Annexin V FITC (eBioscience) for 10 minutes. The stained cells were immediately analyzed on BD LSRII flow cytometer and data were processed using FlowJo (Tree Star).

HLA-A*02:01 = HLA-A*02:01 (Homo sapiens, UniProt P04439, D140Y/D185E/D98H/E176V/E277Q/G131W/G231S/I119V/I121R/I166T/I218V/L300P/L318F/N151K/N90K/P208A/P217A/Q86G/Q94H/R138H/R169H/T345S); settings: cited from earlier work
[1] = format: physicochemical

Molecule	known binder class to HLA-A*02:01 (HLA-A*02:01)	further results
O=S([O-])S(=O)[O-].[Na+].[Na+] [dithionite, sodium dithionite]	–	apoptosis or cell death of cells exposed to buffered dithionite (PBMCs (CD8+ cells)): little sign of apoptosis or cell death
ALQLLLEV	intermediate-	–
NMLSTVLGV	high-affinity	–
SIIPSGPLK [Peptide 10]	–	epitope modification after oxidative conditions ([1]; 0.3 mM sodium periodate, RT, 2 hours): cleaved the N-terminal Ser; also recorded: N-terminal serine of 10 was cleaved; epitope modification in PBS ([1]; PBS control incubation): unmodified
SLENFRAYV	intermediate-	–
VMLRWGVLA	intermediate-	–
